Measurements from paper PMC9491720 (Science Advances, 2022).

Target: Flag-tagged PKM2 (pyruvate kinase M2) (human, UniProt P14618-1 1-531, labeled with fluorescence (in the MST assay only))
Assay: MST

Sequence of Flag-tagged PKM2 (pyruvate kinase M2) (P14618 whole entry): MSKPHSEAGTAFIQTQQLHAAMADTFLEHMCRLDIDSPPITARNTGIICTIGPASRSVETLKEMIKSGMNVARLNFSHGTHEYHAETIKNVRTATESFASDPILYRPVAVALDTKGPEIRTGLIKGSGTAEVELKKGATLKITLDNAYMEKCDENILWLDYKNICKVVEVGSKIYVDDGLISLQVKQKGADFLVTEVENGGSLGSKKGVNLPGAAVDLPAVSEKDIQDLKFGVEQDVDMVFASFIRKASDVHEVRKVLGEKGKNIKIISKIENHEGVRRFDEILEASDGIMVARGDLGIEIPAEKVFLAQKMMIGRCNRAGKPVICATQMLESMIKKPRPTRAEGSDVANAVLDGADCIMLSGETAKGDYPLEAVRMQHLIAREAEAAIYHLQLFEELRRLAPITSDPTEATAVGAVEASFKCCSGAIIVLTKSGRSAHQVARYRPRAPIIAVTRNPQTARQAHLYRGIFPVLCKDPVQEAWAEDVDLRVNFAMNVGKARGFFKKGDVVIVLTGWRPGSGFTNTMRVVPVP

B1: recombinant His-tagged Smad7 (natural protein)
chain: MFRTKRSALVRRLWRSRAPGGEDEEEGAGGGGGGGELRGEGATDSRAHGAGGGGPGRAGCCLGKAVRGAKGHHHPHPPAAGAGAAGGAEADLKALTHSVLKKLKERQLELLLQAVESRGGTRTACLLLPGRLDCRLGPGAPAGAQPAQPPSSYSLPLLLCKVFRWPDLRHSSEVKRLCCCESYGKINPELVCCNPHHLSRLCELESPPPPYSRYPMDFLKPTADCPDAVPSSAETGGTNYLAPGGLSDSQLLLEPGDRSHWCVVAYWEEKTRVGRLYCVQEPSLDIFYDLPQGNGFCLGQLNSDNKSQLVQKVRSKIGCGIQLTREVDGVWVYNRSSYPIFIKSATLDNPDSRTLLVHKVFPGFSIKAFDYEKAYSLQRPNDHEFMQQPWTGFTVQISFVKGWGQCYTRQFISSCPCWLEVIFNSR
For B1, which Kd is on record?
The Kd was 346 nM.
